The results in this text go back to US20220194999A1.

For this assay, the target named is HLA-A*02:01 class I complex (conditional p*HLA*02:01, biotinylated heavy chain with beta2-microglobulin) (human). Put plainly: UV peptide exchange, HLA class I ELISA, % of Pos peptide. The settings on record: remark: other sources report otherwise.

On to LVVVGAVGV (here or on the partner: biotinylated heavy chain) [KRAS.G12V mutant peptide …], for which the Average % worked out at 4.5%, the Exch I (%) amounted to 4.3%, the Exch II (%) stood at 4.6% and the average relative binding (%) is less than 15%.
In the same order, the values of LVVVGACGV (here or on the partner: biotinylated heavy chain) [KRAS.G12C mutant peptide …] are 7%, 6.5%, 7.5% and less than 15%.
